Reference: patent US5976495A, “Peptide derived radionuclide chelators” (Resolution Pharmaceuticals, Inc., priority 1996, dated 1999)
No end group written: not given here. *: point of attachment. Acm = CC(=O)NC*

Tested on: focal inflammation in the leg (zymosan-injected left hindleg)
Type: in vivo, male Wistar rats
Conditions: rat; for Fluid:Blood (inflammatory exudate:blood) / Inflam:Uninfl (inflamed:uninflamed muscle, target to background ratio): i.v. via tail vein, 30 minutes, average of two rats; for Inflam:Uninfl (inflamed:uninflamed muscle, target to background ratio): corrected for residual dose in the tail; for GI Tract (% dose) / Liver (% dose) / Urine (% dose): in vivo, iv
Procedure: Rat inflammation studies were performed as follows.
Serial whole-body scintigrams were acquired at 30 minutes.

Substance | Fluid:Blood (inflammatory exudate:blood) | Inflam:Uninfl (inflamed:uninflamed muscle, target to background ratio) | GI Tract (% dose) | Liver (% dose) | Urine (% dose)
N,N-dimethylGly-Ser-Cys(Acm)-Gly-Thr-Lys-Pro-Pro-Arg ({N,N‑dimethyl}-GSC(Acm)GTKPPR) | 1.9 | 5.3 | 2.8 | 2.4 | 63.5
N,N-dibenzylGly-Ser-Cys(Acm)-Gly-Thr-Lys-Pro-Pro-Arg ({N,N‑dibenzyl}-GSC(Acm)GTKPPR) | 0.4 | 3.7 | 7.5 | 2.3 | 55.1
N,N-dimethylGly-Thr-Cys(Acm)-Gly-Thr-Lys-Pro-Pro-Arg ({N,N‑dimethyl}-GTC(Acm)GTKPPR) | 1.6 | 4.6 | 2.5 | 2.4 | 
